Measured values reported in patent US20210388087A1 (Chugai, published 2021).
Residue numbers refer to the chain shown, from its start. Names and notes keep the numbering of the source. Each block holds one binder with its values, some of them ahead of it. Where no end group is shown, it is not given here.

How the values were obtained:
[1] = molecular target: T1, Human CD137 ECD (human); assay: SPR (Biacore), affinity of single-mutation variant against parental H183/L072
T1 construct: also called human CD137 extracellular domain; hCD137

[2] = molecular target: T2, Human CD3eg linker (human); assay: affinity relative to template H183/L072, single-mutation scan
T2 construct: Single chain: CD3 epsilon and gamma subunits joined by a 29-mer linker, Flag-tag at the C-terminus; also called recombinant human CD3
T2 chain: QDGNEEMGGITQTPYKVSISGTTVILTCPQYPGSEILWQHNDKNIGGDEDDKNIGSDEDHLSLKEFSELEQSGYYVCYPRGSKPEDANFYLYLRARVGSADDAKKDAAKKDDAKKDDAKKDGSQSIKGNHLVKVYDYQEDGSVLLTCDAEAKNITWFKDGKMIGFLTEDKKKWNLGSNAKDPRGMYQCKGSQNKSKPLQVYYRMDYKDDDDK

[3] = molecular target: T3, human CD137-Fc (human, biotin-labeled); assay: bead ELISA, IgG on biotinylated antigen, luminescence;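 also: biotinylated antigen captured on streptavidin magnetic beads, then incubated with purified IgG at 50 ng/µL for 1 h at room temperature before detection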
T3 construct: if 90 already holds the Fc, drop the second piece; also called biotin-labeled human CD137 fused to human IgG1 Fc fragment; biotin-human CD137-Fc; not shown: human IgG1 Fc fragment

[4] = molecular target: T4, cyno CD137-Fc (cynomolgus monkey; human, limits assumed, biotin-labeled); assay: as above
T4 construct: whole entry 92 named; also called biotin-labeled cynomolgus monkey CD137 fused to human IgG1 Fc fragment; not shown: human IgG1 Fc fragment
T4 chain: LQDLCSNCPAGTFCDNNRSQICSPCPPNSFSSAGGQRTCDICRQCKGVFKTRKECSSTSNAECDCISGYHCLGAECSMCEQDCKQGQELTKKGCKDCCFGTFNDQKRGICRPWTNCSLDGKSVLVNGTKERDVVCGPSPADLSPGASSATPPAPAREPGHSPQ

[5] = molecular target: T3, human CD137-Fc; assay: bead ELISA on biotin-human CD137-Fc, 0 pmol free CD3e peptide
[6] = molecular target: T3, human CD137-Fc; assay: bead ELISA on biotin-human CD137-Fc, 125 vs 0 pmol free CD3e peptide;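 also: target captured on streptavidin-coated magnetic beads, signal read as fluorescence 2 min after adding APS-5 substrate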
[7] = molecular target: T5, Biotin-labeled CD3 epsilon peptide antigen (human, also: biotin-labeled, site not given here); assay: bead ELISA, IgG on biotinylated CD3 epsilon peptide, luminescence
T5 construct: also called CD3 peptide
T5 peptide: QDGNEEMGGITQTPY

[8] = molecular target: T3, human CD137-Fc; assay: bead ELISA on biotin-human CD137-Fc with 125 pmol/well free CD3e peptide as competitor;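 also: Streptavidin-coated magnetic beads in blocking buffer as the capture surface, well signal read as fluorescence 2 min after adding APS-5 substrate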
[9] = molecular target: T6, biotin-labeled human CD137 fused to human IgG1 Fc fragment (human, biotin-labeled); assay: competitive ELISA on biotin-human CD137-Fc; free CD3e vs free Fc
T6 construct: also called human CD137-Fc; biotin-human CD137-Fc; not shown: human IgG1 Fc fragment

[10] = molecular target: human CD3 ed (human, UniProt P07766 23-126; P04234 22-105, limits assumed); assay: SPR Biacore T200, IgG captured on protein A, 25 C;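 also: antigens diluted in ACES running buffer at pH 7.4 were flowed over antibodies held on a CM3 chip bearing amine-coupled protein A, with buffer alone serving as blank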
[11] = molecular target: T7, cyno CD137 (cynomolgus monkey, UniProt Q07011 24-186 (human entry), limits assumed); assay: SPR Biacore T200, IgG captured on protein A, 25 C;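 also: antigens diluted in ACES running buffer at pH 7.4 were flowed over antibodies held on a CM3 chip bearing amine-coupled protein A, with buffer alone serving as blank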
T7 construct: also called cynomolgus monkey CD137
T7 chain: T4 chain

[12] = molecular target: human CD137 (human, UniProt Q07011 24-186); assay: SPR Biacore T200, IgG captured on protein A, 25 C;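 also: antigens diluted in ACES running buffer at pH 7.4 were flowed over antibodies held on a CM3 chip bearing amine-coupled protein A, with buffer alone serving as blank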
[13] = molecular target: T6, biotin-labeled human CD137 fused to …; assay: competitive ELISA on biotin-human CD137-Fc; free Fc 62.5 pmol (control)
[14] = molecular target: T6, biotin-labeled human CD137 fused to …; assay: competitive ELISA on biotin-human CD137-Fc; competitor free CD3e 62.5 pmol

B2: H183/L072 with A89Y (Kabat) in VL dBBDu072L (antibody, name in Kabat numbering, V domains shown)
VH: QVQLVESGGGLVQPGRSLRLSCAASGFTFSNAWMHWVRQAPGKGLEWVAQIKDKGNAYAAYYAPSVKGRFTISRDDSKNSIYLQMNSLKTEDTAVYYCHYVHYASASTVLPAFGVDAWGQGTTVTVSS
VL: DIVMTQSPLSLPVTPGEPASISCQASQELVHMNRNTYLHWYQQKPGQAPRLLIYKVSNRFPGVPDRFSGSGSGTDFTLKISRVEAEDVGVYYCYQGTSVPFTFGQGTKLEIK
notes: Single-mutation variant of H183L072
fold change of affinity for CD3 [2]: 0.5 fold

B3: H183/L072 with F55Y (Kabat) in VL dBBDu072L (antibody, name in Kabat numbering, V domains shown)
VH: B2 VH
VL: B2 VL with F60Y, Y94A
notes: as for B2
fold change of affinity for CD3 [2]: 10.6 fold

B4: H183/L072 with F96Y (Kabat) in VL dBBDu072L (antibody, name in Kabat numbering, V domains shown)
VH: B2 VH
VL: B2 VL with Y94A, F101Y
notes: as for B2
fold change of affinity for CD3 [2]: 0.4 fold

B5: H183/L072 with N53Y (Kabat) in VL dBBDu072L (antibody, name in Kabat numbering, V domains shown)
VH: B2 VH
VL: B2 VL with N58Y, Y94A
notes: as for B2
fold change of affinity for CD3 [2]: 0.7 fold

B6: H183/L072 with P56Y (Kabat) in VL dBBDu072L (antibody, name in Kabat numbering, V domains shown)
VH: B2 VH
VL: B2 VL with P61Y, Y94A
notes: as for B2
fold change of affinity for CD3 [2]: 2.7 fold

B7: H183/L072 with R54Y (Kabat) in VL dBBDu072L (antibody, name in Kabat numbering, V domains shown)
VH: B2 VH
VL: B2 VL with R59Y, Y94A
notes: as for B2
fold change of affinity for CD3 [2]: 1.6 fold

B8: H183/L072 with S52Y (Kabat) in VL dBBDu072L (antibody, name in Kabat numbering, V domains shown)
VH: B2 VH
VL: B2 VL with S57Y, Y94A
notes: as for B2
fold change of affinity for CD3 [2]: 1.5 fold

B9: H183/L072 with S93Y (Kabat) in VL dBBDu072L (antibody, name in Kabat numbering, V domains shown)
VH: B2 VH
VL: B2 VL with Y94A, S98Y
notes: as for B2
fold change of affinity for CD3 [2]: 0.7 fold

B14: dBBDu186/L098 (antibody, V domains shown)
VH: B2 VH with K54R, G55S, A57Q, A60T, S105Q
VL: B2 VL with Q24A, Q27E, M32I, N35Y, T36I, Y37F, P61I, Y94A, T97S, S98Q
notes: IgG format; constant regions not specified
Signal decrease [9]: 86.2% | Kd [10]: 1.88 µM | koff [10]: 0.0209 s⁻¹ | kon [10]: 11100 M⁻¹ s⁻¹ | Kd [11]: 134 µM | koff [11]: 0.00119 s⁻¹ | Kd [12]: 2.31 µM | koff [12]: 0.000534 s⁻¹ | kon [12]: 231 M⁻¹ s⁻¹ | ELISA signal [13]: 115000 | ELISA signal [14]: 15900

Further lines, results first:

fold change of affinity for CD137 [1]: 0.1 fold
B1: Dual-Fab H183/L072 variant with single light chain mutation V94Y (Kabat) (antibody, name in Kabat numbering, V domains shown)
VH: B2 VH
VL: B2 VL with Y94A, V99Y
notes: expressed as an antibody in Expi293 and purified on Protein A; also called dBBDu183H / dBBDu072L V94Y

fold change of affinity for CD3 [2]: 0.2 fold
B10: H183/L072 with T97Y (Kabat) in VL dBBDu072L (antibody, name in Kabat numbering, V domains shown)
VH: B2 VH
VL: B2 VL with Y94A, T102Y
notes: as for B2

fold change of affinity for CD3 [2]: 0.2 fold
B11: H183/L072 with V94Y (Kabat) in VL dBBDu072L (antibody, name in Kabat numbering, V domains shown)
VH: B2 VH
VL: B2 VL with Y94A, V99Y
notes: as for B2

RLU [3]: 14100 RLU | S/N ratio (human CD137-Fc/Fc) [3]: 6.58 | RLU [4]: 3350 RLU | S/N ratio (cyno CD137-Fc/Fc) [4]: 1.56 | ELISA signal [5]: 2700 | Signal decrease [6]: 30.2% | RLU [7]: 177000 RLU | S/N ratio (CD3 peptide/non coating) [7]: 148 | ELISA signal [8]: 1880
B12: DXDU01_3#072 (antibody, V domains shown)
VH: B2 VH with K54R, G55S, N56Q, A57L, P111G, F113Y
VL: B2 VL with Q24R, A25S, E28S, M32S, P61S, Y94G, S98Q, F101Y
notes: Human IgG1; light chain GLS3000 (kappa); also called dBBDu122

Signal decrease [9]: 96.9% | Kd [10]: 0.349 µM | koff [10]: 0.021 s⁻¹ | kon [10]: 60200 M⁻¹ s⁻¹ | Kd [11]: 6.92 µM | koff [11]: 0.0748 s⁻¹ | kon [11]: 10800 M⁻¹ s⁻¹ | Kd [12]: 8.43 µM | koff [12]: 0.0102 s⁻¹ | kon [12]: 1210 M⁻¹ s⁻¹ | ELISA signal [13]: 141000 | ELISA signal [14]: 4370
B13: dBBDu167/L094 (antibody, V domains shown)
VH: B2 VH with A57L, S107G, T108G, V109G, A112G
VL: B2 VL with Q24Y, Q27E, V30L, M32I, N35H, T36I, S57Y, P61N, Y94A, T97S
notes: IgG format; constant regions not specified; also called dBBDu_167 dBBDu.L094

Signal decrease [9]: 13% | Kd [10]: 3.36 µM | koff [10]: 0.0546 s⁻¹ | kon [10]: 16200 M⁻¹ s⁻¹ | Kd [11]: 70.4 µM | koff [11]: 0.00208 s⁻¹ | Kd [12]: 1.91 µM | koff [12]: 0.000746 s⁻¹ | kon [12]: 391 M⁻¹ s⁻¹ | ELISA signal [13]: 102000 | ELISA signal [14]: 88900
B15: dBBDu186/L100 (antibody, V domains shown)
VH: B2 VH with K54R, G55S, A57Q, A60T, S105Q
VL: B2 VL with Q24S, Q27E, M32I, N35Y, T36I, Y37F, S57Y, P61M, Y94G, T97S
notes: as for B14
